Measured values taken from the supplement of paper PMC9170038.

Tested on: MS2 coat protein
Experiment: apparent KD of MS2 coat protein; higher = weaker reporter binding
Details: Eterna round: R107; input ligand: theophylline 20 uM
How it was run: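 Apparent KD stands for the median, per design, of fits to normalised cluster binding curves. The curves came from titrating on-chip-transcribed RNA switches on Illumina sequencing clusters with SNAP-549-labelled MS2 coat protein, twofold from 0.7 or 1.5 nM to 3 µM. Buffer was 100 mM Tris-HCl pH 7.5, 80 mM KCl, 4 mM MgCl2, without or with constant ligand.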

Sequence | apparent KD of MS2 coat protein [nM]
ACAUGAGGAUCACCCAUGUAGUGGCACGAUACCAGCUGAUCCCGUGGCCCUUGGCAGCGUCCGGUGUGGUCUGCCGGGAUGGAGC [WBWMULLIN] | 40.7
UUGACAUGAGGAUCACCCAUGUAAACUGAAGGAGCGUCGAAAAUGACAGGUAGGUCGCAGAAUAAUAAUGGUGAUCGUAAAUAUU [#12 Exclusion - Arginine A] | 79.9
CGAACAUGAGGAUCACCCAUGUUAACCGAAGGAGCGGCGCAUAAGUCAGGUAGGUCGCGGUAGAUGAAAUAGAGCAGUGGUGACA [#01 Same State - Arginine A] | 45
UGUAUGGACUGAAGGAGCGGGUAAUAAACUUGAGGAUCACCCAGGUAAUAGGCGAAAGCCACCCAGGUAGGUCGCAGUCCAUACU | 38.9
UUAGUAACGACGGCCGCCACUGAUUUUGGACAUGAGGAUCACCCAUGUAAAGAUCCUAGAAUGGUCAGGACCGGGUCUGAUAAUG [Exclusion Tryptophane B GF4] | 40
UUAAUGAUAUAUCAUAUGAUAUAUCCAGAAGGAGCGUCAUAAAUGGCAGGUAGGUCGCUGAAGGCAACAUGAGGAUCACCCAUGU [#16 Same State - Arginine A] | 44.6
AUACAUGAGGAUCACCCAUGUCAUUCAGAAGGAGCGUCAUUAUUGACAGGUAGGUCGCUGAUAAAAUUUUUAUACAUUAUGUUUA [JR_SSArginiA_Sub014] | 20.9
UGUAUGGGAACAUGAGGAUCACCCAUGUGGCGAGGACCGGUACGGCCGCCACUCGAGCAGCAAGCGUGUAUGACGCUGCUGCAUG [ss-trypA-0mod] | 377
ACUAGAGGUGGAAGGAGCGGGAGACAUGAGGAUCACAUGAGGAUCACCCAUGUAGGAUCAUCCCAGGUAGGUCGCCAUGUCGAAA [,mmlmullin] | 255
ACACGUGACAAGGAUACCAGCCUGGCUAGUUCAAACCCUCACAUGAGGAUCACCCAUGUAGGCCCUUGGCAGCCUAUAGUCUAAG [theeternabot_exclusion_MS2_Theo_B_38] | 43.7
AAAUAAAUCACAUGAGGAUCACCCAUGGAUACCAGGCCUGGAAACAGCCCUUGGCAGCCACAUGAGGAUCACCCAUGUGCUAAAU [MAT - Exclusion Theophlline A - Mod of Eli - D2] | 207
AUAUGAUCAUAUGAUACCAGAAAUGGUAUUCCUUUGUUUCUUACAUGAGGAUCACCCAUGUUCCCUUGGCAGCAUAUGAUCAUAU [ETHB #2] | 221
GGAUAGGACGGAAGGAGCGACGUGAGGCUAAUGUCCAGUCUUCUACAUGAGGAUCACCCAUGUCAGGUAGGUCGCCGUCCUAUCG [#21 Exclusion - Arginine B] | 51.7
CUGCUACAUGAGGAUCACCCAUGUGGAGAUACCAGCCUGAACGAUGGCCCUUGGCAGCUCUUAGCUGGUGAUCAUAUAUUUCAGA [Zazaat] | 68.2
GCCAUCGGCGGAAGCCGAUGGUAUACAGAAGGAGCGUAGGAAACUACAGGUAGGUCGCUGGACAUGAGGAUCACCCAUGUAAUAG [#27 Same State - Arginine A] | 26.7
UUCUUUGACGAUCUGGGUUUACCAGAUCGACGAGGACCGGUACGGCCGCCACUCGUGUUUUCUUUACAUGAGGAUCACCCAUGUU [#16Tryptophan A Same State] | 22.6
ACAUGAGGAUCACCCAUGUGGCGAGUUGAUACCAGACCCGCACUAGUCCCUUGGCAGCAACUACGUGUGGGACACCCAUGUUAAG [qpqmullin] | 76.2
AAACAUGAGGAUCACCCAUGUUGAGGAUCACGAGGACCGGUACGGCCGCCACUCGACAUGAGGAUCACCCAUGUGAGGAUCACCC [Same State - Tryptophan A #1] | 214
CGGUUUGUGAUGGAUACCAGCAGAGAGAAUGUUUAUCCUGACAUGAGGAUCACCCAUGUGUGCCCUUGGCAGCUGUUGUGGGCUG [8.Y] | 102

Same assay, conditions: Eterna round: R107; input ligand: theophylline 2 mM

Sequence | apparent KD of MS2 coat protein [nM]
UUAAUCUUGGAUGAAAACAUUUAAGCAGAAGGAGCGUGAUAAAACACAGGUAGGUCGCUGAAGGGAACAUGAGGAUCACCCAUGU [AstrosSSArgA#15] | 31.7
UAAACUACACAUGAGGAUCACCCAUGUGGCCGAGGACCGGUACGGCCGCCACUCGUGUGUUAAUAAAAGAACUGCAAGGUUCUUC [Uslausce] | 748
CGUAUUGGAAACAGUACGAGUGAUCCGGUCCGAGGACCGGUACGGCCGCCACUCGAAAAUAAAUAACAUGAGGAUCACCCAUGUA [Ex Tryptophan A 8] | 19.8
UCGGUUUUCUACAUGAGGAUCACCCAUGUCCGAGGACCGGUACGGCCGCCACUCGCAAUCAAACAGACGUGGGCCAAAUUUGCGU [Isinso] | 11.6
GUUUACAUGAGGAUCACCCAUGUCGCCGGCCGAGGACCGGUACGGCCGCCACUCGUCCUAAUGGCACUUGACUUCCCUAUUAAGU [theeternabot_sameState_MS2_Trp_A_33] | 25.5
GGCCAUGGAAACAUGGCGGCGGCAUAUGCGCGAGGACCGGUACGGCCGCCACUCGGGCAACAUGAGGAUCACCCAUGUUCCUCAU [ETA NP+V+V2 #24 +-Same Structure] | 388
GCCUAGCAGCGAAGGAGCGAGGUAACUUAAUAAAUAAAUACAAGAGGAUCACCCUUGUUUCCUCAGGUAGGUCGCGCUGCUAGGC [SSAB Alternative Aptamer #2 NP+V+V2] | 20.9
GGUCUGUGGAGCGAUACCAGCUUGAGUGUACUGGCCAGGUACAUGAGGAUCACCCAUGUAAGCCCUUGGCAGCGCUCCAGAGACC [#1 Exclusion - Theophylline B Attempt #17 (HarryS)] | 31.5
UGAUGGUUCGGAAGGAGCGUGUAAGAACAAGAACAUGAGGAUCACCCAUGUAUUAAUUUAACACAGGUAGGUCGCCGAGUUAUUG [11.I] | 28.9
ACGUUGUAGUCGGCCGCCACUGUUUUCAUGUUCAACAUGAGGAUCACCCAUGUACCUUUUUUUAUCAGGACCGGGACGUAUUCGA [JR_SSTryptoB_Sub003] | 96.8
UUGACAUGAGGAUCACCCAUGUAAACUGAAGGAGCGUCGAAAAUGACAGGUAGGUCGCAGAAUAAUAAUGGUGAUCGUAAAUAUU [#12 Exclusion - Arginine A] | 83.9
CGAACAUGAGGAUCACCCAUGUUAACCGAAGGAGCGGCGCAUAAGUCAGGUAGGUCGCGGUAGAUGAAAUAGAGCAGUGGUGACA [#01 Same State - Arginine A] | 32
UGUAUGGACUGAAGGAGCGGGUAAUAAACUUGAGGAUCACCCAGGUAAUAGGCGAAAGCCACCCAGGUAGGUCGCAGUCCAUACU | 23
UUAGUAACGACGGCCGCCACUGAUUUUGGACAUGAGGAUCACCCAUGUAAAGAUCCUAGAAUGGUCAGGACCGGGUCUGAUAAUG [Exclusion Tryptophane B GF4] | 54
UUAAUGAUAUAUCAUAUGAUAUAUCCAGAAGGAGCGUCAUAAAUGGCAGGUAGGUCGCUGAAGGCAACAUGAGGAUCACCCAUGU [#16 Same State - Arginine A] | 32.6
